For one substance, expression of the enhanced blue fluorescent protein 2 (EBFP2) reporter gene compared to the negative control results are on record in patent US11674128.

For this assay, the target named is mini-SaCas9-3 with four tandem repeats of SpyTag fused to its C-terminal (Streptococcus pyogenes). Briefly: cell-based or functional assay.

On to SpyCatcher:VPR, for which the expression of the enhanced blue fluorescent protein 2 (EBFP2) reporter gene compared to the negative control worked out at 100 fold.
